Test [1] relates to microtubules of wild-type strain DDY898. Description: Microtubule depolymerization by benomyl in yeast cells, immunofluorescence. Format: cell-based. The note with it: 20 μg/ml benomyl, two hours at 25° C. How it is done: Yeast cells were grown to early log phase in minimal or rich medium. For galactose induction, cells were grown to log phase in medium containing either raffinose or glucose. Cells grown on glucose were washed twice with water and then diluted into medium containing galactose/raffinose. Galactose was added directly to medium containing raffinose. Fixation and immunofluorescence procedures were carried out as described by Drubin et al. (1988). The YOL134 anti-tubulin antibody was used at 1:200 and the anti-Duo1p antibody (preparation described below) at 1:2000. Fluorescein-conjugated anti-heavy chain secondary antisera were obtained from Cappel/Organon Teknika (Malvern, Pa.). To determine whether the localization of Duo1p was dependent on microtubules in vivo, microtubules of wild-type strain DDY898 were depolymerized by the addition of 20 μg/ml benomyl. […] With the elimination of microtubules, Duo1p staining also vanished.

For test [2], the target named is bovine microtubules (assembled from bovine tubulin, stabilised with taxol) (bovine). Description: co-sedimentation with microtubules; no increase with more microtubules.
The target in test [3] is yeast microtubules (yeast). The description is as above.
Test [4] deals with bovine microtubules (assembled from bovine tubulin, stabilised with taxol) (bovine). Description: co-sedimentation of in vitro translated Dam1p with taxol-stabilised bovine microtubules; half of Dam1p in the pellet at 5 µM microtubules.

As usually defined, the Kd is the constant that tells how readily two partners part at equilibrium. Lower therefore signals higher affinity.

For `CCCCNC(=O)n1c(NC(=O)OC)nc2ccccc21` [benomyl], the “depolymerization of microtubules (immunofluorescence)” value in test [1] was “essentially all of the microtubules were depolymerized”.
Take “GST-Duo1p fusion protein purified from yeast (pDD475)”: the percent of the protein bound to microtubules in test [2] and in test [3] was 9% each time.
In test [4], in vitro translated Dam1p gave a Kd of 5 µM.

The record behind these values is patent US6300084A, “Anti-mitotic agent screening process” (The Regents of the University of California, priority 1999, dated 2001).
